Assay results published in patent publication US20260125457A1 (Janssen / Centocor, published 2026).

T1: 22 amino acid CALRmut-specific peptide (acetylation of the terminal amino-group; C-terminal -OH group)
T1 construct: also called 22aa CALRmut peptide; CALRmut target peptide
T1 peptide: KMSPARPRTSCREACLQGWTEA


What was measured:
[1] = biological target: CALRdel52 (mutant calreticulin, 52 base pair deletion, Type 1) expressed with MPL on engineered cancer cells (UniProt P27797); assay: cell-based or functional assay
[2] = biological target: CALRins5 (mutant calreticulin, 5 base pair insertion, Type 2) expressed with MPL on engineered cancer cells (UniProt P27797); assay: cell-based or functional assay
[3] = biological target: T1, 22 amino acid CALRmut-specific peptide; assay: phage ELISA; QC ELISA of soluble Fab-AP

Chain of CALRdel52 (mutant calreticulin, 52 base pair deletion, Type 1) expressed with MPL on engineered cancer cells (P27797 other isoform, or with tags, fused parts or gaps mutant limits assumed): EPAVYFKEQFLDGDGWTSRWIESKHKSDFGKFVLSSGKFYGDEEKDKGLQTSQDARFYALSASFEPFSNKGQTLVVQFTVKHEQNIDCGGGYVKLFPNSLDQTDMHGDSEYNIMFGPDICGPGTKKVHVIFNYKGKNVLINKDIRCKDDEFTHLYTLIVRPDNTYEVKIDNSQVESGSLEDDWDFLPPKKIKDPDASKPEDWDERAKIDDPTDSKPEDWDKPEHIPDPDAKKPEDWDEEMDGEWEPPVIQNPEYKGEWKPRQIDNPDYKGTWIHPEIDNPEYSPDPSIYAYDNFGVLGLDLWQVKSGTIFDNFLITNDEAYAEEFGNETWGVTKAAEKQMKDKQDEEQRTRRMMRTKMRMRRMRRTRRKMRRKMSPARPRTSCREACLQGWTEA
Chain of CALRins5 (mutant calreticulin, 5 base pair insertion, Type 2) expressed with MPL on engineered cancer cells (P27797 other isoform, or with tags, fused parts or gaps mutant limits assumed): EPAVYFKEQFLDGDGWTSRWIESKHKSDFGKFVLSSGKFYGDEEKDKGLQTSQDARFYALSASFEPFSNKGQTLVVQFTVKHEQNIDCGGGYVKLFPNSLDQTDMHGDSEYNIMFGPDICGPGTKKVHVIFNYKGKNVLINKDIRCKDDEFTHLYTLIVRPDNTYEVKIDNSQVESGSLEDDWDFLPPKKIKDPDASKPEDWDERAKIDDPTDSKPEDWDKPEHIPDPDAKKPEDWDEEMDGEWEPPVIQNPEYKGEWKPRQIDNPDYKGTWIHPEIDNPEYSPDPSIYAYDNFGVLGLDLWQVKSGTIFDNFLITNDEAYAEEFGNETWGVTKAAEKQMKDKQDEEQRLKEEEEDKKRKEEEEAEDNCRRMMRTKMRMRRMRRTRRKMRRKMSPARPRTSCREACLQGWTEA

Binder	Cytotoxicity EC50, K562 MPL CALRdel52 cells [1] [mg/L]	Cytotoxicity EC50, OCI-M2 MPL CALRdel52 cells [1] [mg/L]	Cytotoxicity EC50, K562 MPL CALRins5 cells [2] [mg/L]	Cytotoxicity EC50, OCI-M2 MPL CALRins5 cells [2] [mg/L]	binding result [3]
CALRB114 (MP1001 Fab x CD3W245-HL-scFv, high affinity) (bispecific antibody, part only; not given: CD3 scFv arm and IgG1 constant regions, V domains shown, not shown: another chain or arm of the molecule; a dimerising Fc or GST; small tags and cut ends) VH: QEQLKESGGRLVTPGTPLTLTCAVSGFSLDIYGMSWVRQAPGKGLEWIGIIYIEGITYYANWAKGRFTISKTSSTTLELKMTSLTTEDTAMYFCVAGVGRIWGPGTLVTVSS VL: YVMMTQTPSSVSAAVGGTVTINCQASQSLYNNNNLAWFQQKPGQPPKRLIYPASTLASGVSSRFKGSGSGTQFTLTISDVQSDDAATYFCLGEFSCSSADCYAFGGGTEVVVK	0.0112	0.0168	0.0163	0.0235	–
CALRB74 (MP1001 Fab x CD3W245-LH-scFv, medium affinity) (bispecific antibody, part only; not given: CD3 scFv arm and IgG1 constant regions, V domains shown, not shown: another chain or arm of the molecule; a dimerising Fc or GST; small tags and cut ends) VL: YVMMTQTPSSVSAAVGGTVTINCQASQSLYNNNNLAWFQQKPGQPPKRLIYPASTLASGVSSRFKGSGSGTQFTLTISDVQSDDAATYFCLGEFSCSSADCYAFGGGTEVVVK VH: QEQLKESGGRLVTPGTPLTLTCAVSGFSLDIYGMSWVRQAPGKGLEWIGIIYIEGITYYANWAKGRFTISKTSSTTLELKMTSLTTEDTAMYFCVAGVGRIWGPGTLVTVSS	0.0521	0.0253	0.0304	0.0322	–
CALRB118 (MP1016C Fab x CD3W245-HL-scFv, high affinity) (bispecific antibody, part only; not given: CD3 scFv arm and IgG1 constant regions, V domains shown, not shown: another chain or arm of the molecule; a dimerising Fc or GST; small tags and cut ends) VL: DPVLTQTESPVSAAVGGTVTINCQASQSVYDDNNLAWYQQKPGQPPKRLIYPASTLASGVSSRFSGSGSGSQFTLTISDVQSDDAATYYCQGEFSCTSADCVAFGGGTEVVVK VH: QEQLKESGGRLVTPGTPLTLTCTASGFSLSNYYMSWVRQAPGKGLEWIGGISSRAGTWYASWAKGRFTISGTSSTTMDLKITSPTTEDTATYFCARGLKIWGPGTLVTVSS	0.0099	0.505	0.0157	0.0136	–
CALRB119 (MP1016 Fab x CD3W245-HL-scFv, high affinity) (bispecific antibody, part only; not given: anti-CD3 scFv arm, constant regions, V domains shown, not shown: another chain or arm of the molecule; a dimerising Fc or GST; small tags and cut ends) VL: DPVLTQTESPVSAAVGGTVTINCQASQSVYDDNNLAWYQQKPGQPPKRLIYPASTLASGVSSRFSGSGSGSQFTLTISDVQSDDAATYYCQGEFSCTSADCVAFGGGTEVVVK VH: QEQLKESGGRLVTPGTPLTLTCTASGFSLSNYYMSWVRQAPGKGLEWIGGISSRAGTWYASWAKGRFTISGTSTTMDLKITSPTTEDTATYFCARGLKIWGPGTLVTVSS	0.0064	0.504	0.0104	0.0225	–
CALRB78 (MP1016C Fab x CD3W245-LH-scFv, medium affinity) (bispecific antibody, part only; not given: anti-CD3 scFv arm, constant regions, V domains shown, not shown: another chain or arm of the molecule; a dimerising Fc or GST; small tags and cut ends) VL: DPVLTQTESPVSAAVGGTVTINCQASQSVYDDNNLAWYQQKPGQPPKRLIYPASTLASGVSSRFSGSGSGSQFTLTISDVQSDDAATYYCQGEFSCTSADCVAFGGGTEVVVK VH: QEQLKESGGRLVTPGTPLTLTCTASGFSLSNYYMSWVRQAPGKGLEWIGGISSRAGTWYASWAKGRFTISGTSSTTMDLKITSPTTEDTATYFCARGLKIWGPGTLVTVSS	0.0393	0.0581	0.0648	0.0792	–
CALRB79 (MP1016 Fab x CD3W245-LH-scFv, medium affinity) (bispecific antibody, part only; not given: anti-CD3 scFv arm, constant regions, V domains shown, not shown: another chain or arm of the molecule; a dimerising Fc or GST; small tags and cut ends) VL: DPVLTQTESPVSAAVGGTVTINCQASQSVYDDNNLAWYQQKPGQPPKRLIYPASTLASGVSSRFSGSGSGSQFTLTISDVQSDDAATYYCQGEFSCTSADCVAFGGGTEVVVK VH: QEQLKESGGRLVTPGTPLTLTCTASGFSLSNYYMSWVRQAPGKGLEWIGGISSRAGTWYASWAKGRFTISGTSTTMDLKITSPTTEDTATYFCARGLKIWGPGTLVTVSS	0.0444	0.112	0.0416	0.0911	–
CALRB75 (MP1004 Fab x CD3W245-LH-scFv, medium affinity) (bispecific antibody, part only; not given: CD3 scFv arm and IgG1 constant regions, V domains shown, not shown: another chain or arm of the molecule; a dimerising Fc or GST; small tags and cut ends) VL: DPMLTQTPSSVSAAVGGTVTINCQSSQSVYNNNWLSWLQQKPGQPPNRLIYDASKLESGVPSRFSGSGSGTQFTLTISGVQSDDAATYYCAGGFTGNVYTFGGGTEVVVK VH: QEQLEESGGRLVTPGTPLTLTCKVSGIDLSNNAISWVRQAPGKGLEYIGVIGNTGDTYYASWAKGRFTISKTSSTTVDLKMTSLTTEDTATYFCVRGPPSYSNSVKNIWGPGTLVTISS	0.193	0.115	0.116	0.129	–
Clone 5 (Fab, V domains shown, Rabbit/human chimeric Fab on phage; also Fab-AP) VH: QEQLKESGGRLVAPGTPLRLTCTVSGIDLSNNAVSWVRQAPGKGLEYIGVIGNTGTTYYASWAKGRFTISKTTSTTVDLKMTSLTTDDTATYFCVRGPPSYSNSVKNIWGPGTLVTVSS VL: DPVLTQTPSSVSAAVGGTVTIGCQSSQSVYDKNWLSWYQQKPGQPPSRLIYDASKLESGVPSRFSGSGSGTQFTLTISGVQCDDAATYYCAGGFTGNVYGFGGGTEVVVK	–	–	–	–	binds
